These results are taken from PMC6294489, “Structural basis for receptor-regulated SMAD recognition by MAN1” (Nucleic Acids Research, 2018).

One data set addresses SMAD2C-2E (human). In words: ITC; Trx-MAN1(762–890)-SDED (255 μM) injected into SMAD1C-2E (20 μM) or SMAD2C-2E (25 μM); 20°C; 100 mM Na2HPO4 pH 8.0, 150 mM NaCl, 1 mM TCEP; one set of sites model.
Data set [1] concerns the target T1, His-GST-SMAD1C-2E H364Y-F366W (human, UniProt Q15797-1 259-465, H364Y | F366W | S463E | S465E).
T1 construct: SMAD1, human, MH2 domain, residues 259–465 with S463E, S465E, H364Y and F366W; also called H364Y-F366W double mutant of SMAD1; source: E. coli BL21(DE3) with pG-KJE8, purified (Ni-NTA, MonoQ); not shown: His tag, N-terminal, kept; GST, N-terminal, kept
In words: pull-down; His-GST-SMAD1C-2E, its mutant or His-GST-SMAD2C-2E (2.5 μM) on Ni-NTA resin, Trx-MAN1(762–890)-SDED (5 μM; 5, 10 and 20 μM in the comparison of SMAD1 with SMAD2); 50 mM Tris–HCl pH 9.0, 200 mM NaCl, 10 mM imidazole, 10% glycerol, 1 mM TCEP. The note with it: both partners purified.

The target of data set [2] is T2, SMAD1C-2E (human, UniProt Q15797-1 259-465, S463E | S465E).
T2 construct: SMAD1, human, MH2 domain, residues 259–465 with S463E and S465E; Crystals: from pGEX-6P-SMAD1C-2E (GST cleaved); treated as the same molecule; also called phosphorylated-state mimic of the MH2 domain of SMAD1; source: E. coli BL21(DE3) with pG-KJE8; for ITC and thermal shift purified (Ni-NTA, HRV3C protease, MonoQ); not shown: GST, N-terminal, cleaved
T2 sequence (Q15797 259-465 S463E/S465E): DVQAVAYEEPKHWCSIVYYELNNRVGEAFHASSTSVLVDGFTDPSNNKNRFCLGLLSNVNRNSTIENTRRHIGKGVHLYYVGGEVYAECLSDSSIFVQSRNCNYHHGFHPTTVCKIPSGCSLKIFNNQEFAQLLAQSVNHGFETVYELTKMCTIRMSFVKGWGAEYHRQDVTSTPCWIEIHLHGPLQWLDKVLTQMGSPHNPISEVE
In words: ITC; Trx-MAN1(762–890)-SDED (255 μM) injected into SMAD1C-2E (20 μM) or SMAD2C-2E (25 μM); 20°C; 100 mM Na2HPO4 pH 8.0, 150 mM NaCl, 1 mM TCEP; one set of sites model. Conditions: both partners purified. In general terms: ITC needs no label: the signal is the heat of the interaction.

Data set [3] concerns the target T2, SMAD1C-2E. The data set can be described thus: thermal shift assay; SMAD1C-2E or SMAD2C-2E (10 μM) with Trx-MAN1(762–911)-SDED (10 μM), SYPRO Orange; 10 mM Tris–HCl pH 9.0, 200 mM NaCl, 1 mM TCEP; 20 to 95°C. Conditions: both partners purified.

T1 sequence (Q15797 259-465 H364Y/F366W/S463E/S465E): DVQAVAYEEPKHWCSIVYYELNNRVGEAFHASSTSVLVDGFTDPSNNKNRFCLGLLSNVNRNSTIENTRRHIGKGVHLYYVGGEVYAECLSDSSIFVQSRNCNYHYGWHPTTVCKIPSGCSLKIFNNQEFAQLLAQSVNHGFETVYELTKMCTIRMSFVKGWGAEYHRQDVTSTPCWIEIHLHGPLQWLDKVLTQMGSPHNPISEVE

B1: Trx-MAN1(762–890)-SDED (domain or fragment, human, UniProt Q9Y2U8 762-890, looked up)
chain: SKVWQGQAFHLDRRNSPPNSLTPCLKIRNMFDPVMEIGDQWHLAIQEAILEKCSDNDGIVHIAVDKNSREGCVYVKCLSPEYAGKAFKALHGSWFDGKLVTVKYLRLDRYHHRFPQALTSNTPLKPSNK
notes: MAN1, human, residues 762–890 (ULM and UHM domain); Layout: His-tag, HRV3C site, Trx, Gly-Ser, MAN1, Ser-Asp-Glu-Asp; His tag cut off with HRV3C; source: E. coli Rosetta (DE3), purified (Ni-NTA, HRV3C protease, MonoQ); not shown: His tag, N-terminal, cleaved; Trx, N-terminal, kept; SDED (Ser-Asp-Glu-Asp), C-terminal, kept
As for B1, the Kd with SMAD2C-2E (human) was 3300 nM; with SMAD1C-2E [2], 350 nM. For the same molecule, in data set [1], the binding result is “binds”.

B2: Trx-MAN1(762–911)-SDED (domain or fragment, human, UniProt Q9Y2U8 762-911, looked up)
chain: SKVWQGQAFHLDRRNSPPNSLTPCLKIRNMFDPVMEIGDQWHLAIQEAILEKCSDNDGIVHIAVDKNSREGCVYVKCLSPEYAGKAFKALHGSWFDGKLVTVKYLRLDRYHHRFPQALTSNTPLKPSNKHMNSMSHLRLRTGLTNSQGSS
notes: MAN1, human, residues 762–911 (ULM, UHM domain and C-terminal disordered region); source: E. coli Rosetta (DE3), purified (Ni-NTA, HRV3C protease, MonoQ); not shown: His tag, N-terminal, cleaved; Trx, N-terminal, kept; SDED (Ser-Asp-Glu-Asp), C-terminal, kept
On to B2, for which, in the data set with SMAD1C-2E [3], the “Tm of SMAD1C-2E with the binder (48.5°C without)” value turned out to be 50.5 °C.

One may read the Kd as the free concentration of one partner at which half of the binding sites on the other are occupied at equilibrium, for simple one-to-one binding. The low end stands for a tighter complex, the high end for a looser complex.
